{"source": "the RNAGym collection of RNA variant scans (doi:10.7554/elife.80360)", "parents": {"B1": {"name": "HDV Ribozyme (parent)", "chain": "GGCCGGCAUGGUCCCAGCCUCCUCGCUGGCGCCGGCUGGGCAACAUUCCGAGGGGACCGUCCCCUCGGUAAUGGCGAAUGGGACCCA"}}, "data": [{"variants_of": "B1", "assay": "self-cleavage, relative activity (ratio to wild type); higher = more cleavage; co-transcriptional", "values": [{"variant": "U23G A43U", "self-cleavage": 0.219}, {"variant": "C22A U72G", "self-cleavage": 0.332}, {"variant": "C22A U72A", "self-cleavage": 0.0665}, {"variant": "U23G G39A", "self-cleavage": 0.17}, {"variant": "U23C G34A", "self-cleavage": 0.0898}, {"variant": "C22U A78C", "self-cleavage": 0.126}, {"variant": "C22U A78G", "self-cleavage": 0.314}, {"variant": "C21U U65C", "self-cleavage": 0.198}, {"variant": "C21U U65G", "self-cleavage": 0.0852}, {"variant": "U23A C85U", "self-cleavage": 0.98}, {"variant": "C22U C75G", "self-cleavage": 0.208}, {"variant": "C22U A42G", "self-cleavage": 0.0755}, {"variant": "C22U A43U", "self-cleavage": 0.0831}, {"variant": "C21U U47A", "self-cleavage": 0.363}, {"variant": "C21U U47G", "self-cleavage": 0.185}, {"variant": "C22U C44A", "self-cleavage": 0.0898}, {"variant": "C22G G82C", "self-cleavage": 0.0378}, {"variant": "U23G C48G", "self-cleavage": 0.361}, {"variant": "U23G C48U", "self-cleavage": 0.731}, {"variant": "C22U C63G", "self-cleavage": 0.782}, {"variant": "C22G U47G", "self-cleavage": 0.0791}, {"variant": "U23A C66G", "self-cleavage": 0.787}, {"variant": "C22A U23A", "self-cleavage": 0.224}, {"variant": "C21U C57U", "self-cleavage": 0.18}, {"variant": "C22A G55C", "self-cleavage": 0.262}, {"variant": "C22U C66G", "self-cleavage": 0.814}, {"variant": "C22U C66U", "self-cleavage": 0.604}, {"variant": "U23C G68C", "self-cleavage": 0.727}, {"variant": "C22A G53U", "self-cleavage": 0.376}, {"variant": "C21U A83C", "self-cleavage": 0.108}, {"variant": "C22A A42U", "self-cleavage": 0.111}, {"variant": "C22G A56G", "self-cleavage": 0.0875}, {"variant": "C22G C36U", "self-cleavage": 0.108}, {"variant": "U23A U60C", "self-cleavage": 1.16}, {"variant": "U23A A77C", "self-cleavage": 0.332}, {"variant": "U23A A77U", "self-cleavage": 0.567}, {"variant": "U23G G80U", "self-cleavage": 0.129}, {"variant": "U23G G80A", "self-cleavage": 0.134}, {"variant": "C21U G25A", "self-cleavage": 0.0997}, {"variant": "C22G U65C", "self-cleavage": 0.0997}, {"variant": "U23G C26G", "self-cleavage": 0.831}, {"variant": "C21U G76A", "self-cleavage": 0.271}, {"variant": "C22U C36A", "self-cleavage": 0.0739}, {"variant": "U23C U47G", "self-cleavage": 1.28}, {"variant": "U23C U47C", "self-cleavage": 1.04}, {"variant": "U23C G80A", "self-cleavage": 0.394}, {"variant": "U23C G80C", "self-cleavage": 0.188}, {"variant": "U23C G80U", "self-cleavage": 0.16}, {"variant": "U23A G31A", "self-cleavage": 0.489}, {"variant": "U23A G25A", "self-cleavage": 0.277}, {"variant": "U23G A78G", "self-cleavage": 0.262}, {"variant": "U23G A78U", "self-cleavage": 0.0875}, {"variant": "C21U G67U", "self-cleavage": 0.174}, {"variant": "C22A A70U", "self-cleavage": 0.222}, {"variant": "C22G C41A", "self-cleavage": 0.0346}, {"variant": "C21U C36U", "self-cleavage": 0.218}, {"variant": "U23C G55A", "self-cleavage": 0.814}, {"variant": "U23A G35A", "self-cleavage": 0.864}, {"variant": "U23A C57G", "self-cleavage": 1.06}, {"variant": "U23A C57A", "self-cleavage": 1.09}, {"variant": "U23A C57U", "self-cleavage": 0.812}, {"variant": "C22U A56G", "self-cleavage": 0.895}, {"variant": "C22U C61G", "self-cleavage": 0.545}, {"variant": "U23A G74U", "self-cleavage": 0.348}, {"variant": "U23C C26G", "self-cleavage": 1.05}, {"variant": "C22G C48U", "self-cleavage": 0.0594}, {"variant": "C22U C33U", "self-cleavage": 0.533}, {"variant": "C21U G54C", "self-cleavage": 0.292}, {"variant": "U23G C24U", "self-cleavage": 0.314}, {"variant": "U23G C24A", "self-cleavage": 0.706}, {"variant": "C22U A71C", "self-cleavage": 0.623}, {"variant": "C21G U79G", "self-cleavage": 0.0554}, {"variant": "C22G C24A", "self-cleavage": 0.0396}, {"variant": "C22G C24G", "self-cleavage": 0.0339}, {"variant": "C22U U65C", "self-cleavage": 0.78}, {"variant": "U23A C63U", "self-cleavage": 0.96}, {"variant": "C22A U27C", "self-cleavage": 0.317}, {"variant": "C22A U27A", "self-cleavage": 0.0573}, {"variant": "C22U G50C", "self-cleavage": 0.671}, {"variant": "C21U C64U", "self-cleavage": 0.17}, {"variant": "C22A C75U", "self-cleavage": 0.128}, {"variant": "C22U G82U", "self-cleavage": 0.23}, {"variant": "C22A A71G", "self-cleavage": 0.393}, {"variant": "C22A A71U", "self-cleavage": 0.326}, {"variant": "C22A A71C", "self-cleavage": 0.0405}, {"variant": "U23G U60A", "self-cleavage": 0.831}, {"variant": "C22U G55U", "self-cleavage": 0.732}, {"variant": "C22U C48G", "self-cleavage": 0.635}, {"variant": "U23A G55U", "self-cleavage": 0.976}, {"variant": "C22A C85U", "self-cleavage": 0.345}, {"variant": "U23A A83C", "self-cleavage": 0.508}, {"variant": "C22U G31A", "self-cleavage": 0.22}, {"variant": "U23A A70U", "self-cleavage": 0.962}, {"variant": "U23A A71C", "self-cleavage": 0.712}, {"variant": "U23C C57A", "self-cleavage": 0.849}, {"variant": "C22U G52A", "self-cleavage": 0.709}, {"variant": "C22G G80C", "self-cleavage": 0.136}, {"variant": "C22U G67C", "self-cleavage": 0.535}, {"variant": "C22U G67A", "self-cleavage": 0.522}, {"variant": "C22U U72A", "self-cleavage": 0.219}, {"variant": "C22U U72G", "self-cleavage": 0.17}, {"variant": "U23A C30G", "self-cleavage": 0}, {"variant": "C21G U72G", "self-cleavage": 0.0462}, {"variant": "C22G C66A", "self-cleavage": 0.0692}, {"variant": "U23A A56U", "self-cleavage": 1.08}, {"variant": "C22U A83C", "self-cleavage": 0.298}, {"variant": "C22A A56C", "self-cleavage": 0.312}, {"variant": "C22A A56G", "self-cleavage": 0.415}, {"variant": "C22A G73C", "self-cleavage": 0.0482}, {"variant": "C22A G73A", "self-cleavage": 0.0723}, {"variant": "C22A U65C", "self-cleavage": 0.446}, {"variant": "U23C C41G", "self-cleavage": 0.201}, {"variant": "C22U G53C", "self-cleavage": 0.63}, {"variant": "U23G U79A", "self-cleavage": 0.322}, {"variant": "C22A C63U", "self-cleavage": 0.157}, {"variant": "C22A C63A", "self-cleavage": 0.166}, {"variant": "C22A C63G", "self-cleavage": 0.369}, {"variant": "U23C U60G", "self-cleavage": 0.798}, {"variant": "U23G G67U", "self-cleavage": 0.789}, {"variant": "C21G U69A", "self-cleavage": 0.0426}, {"variant": "U23A A78C", "self-cleavage": 0.219}, {"variant": "C22G C62U", "self-cleavage": 0.0346}, {"variant": "U23C A51U", "self-cleavage": 1.15}, {"variant": "U23C A51G", "self-cleavage": 0.978}, {"variant": "U23C A45G", "self-cleavage": 0.8}, {"variant": "U23C A45U", "self-cleavage": 0.675}, {"variant": "C21U U23A", "self-cleavage": 0.173}, {"variant": "C22U C62U", "self-cleavage": 0.842}, {"variant": "C22G G67A", "self-cleavage": 0.0898}, {"variant": "U23G C63A", "self-cleavage": 0.623}, {"variant": "U23C C24G", "self-cleavage": 0.0437}, {"variant": "U23C C24U", "self-cleavage": 0.57}, {"variant": "C22U C57G", "self-cleavage": 0.914}, {"variant": "C22G G34U", "self-cleavage": 0.0627}, {"variant": "C22G G34A", "self-cleavage": 0.0339}, {"variant": "C21U A42U", "self-cleavage": 0.0845}, {"variant": "C21U C66G", "self-cleavage": 0.277}, {"variant": "C22U G28A", "self-cleavage": 0.0804}, {"variant": "C22U G28C", "self-cleavage": 0}, {"variant": "U23G U65C", "self-cleavage": 0.864}, {"variant": "C22U C30A", "self-cleavage": 0.117}, {"variant": "C22U C30U", "self-cleavage": 0.194}, {"variant": "C22U G76A", "self-cleavage": 0.643}, {"variant": "C22U G76U", "self-cleavage": 0.794}, {"variant": "U23G G74A", "self-cleavage": 0.0489}, {"variant": "C22A G80A", "self-cleavage": 0.0479}, {"variant": "C22G G39A", "self-cleavage": 0.0817}, {"variant": "C21U U72C", "self-cleavage": 0.284}, {"variant": "C22U G54U", "self-cleavage": 0.808}, {"variant": "C22U C84A", "self-cleavage": 0.408}, {"variant": "U23C G74U", "self-cleavage": 0.554}, {"variant": "U23C G35A", "self-cleavage": 0.655}, {"variant": "U23C G35C", "self-cleavage": 0.115}, {"variant": "C21U C26A", "self-cleavage": 0.383}, {"variant": "C22G G35A", "self-cleavage": 0.0615}, {"variant": "C22G G35U", "self-cleavage": 0.102}, {"variant": "C22G C44A", "self-cleavage": 0.0426}, {"variant": "U23G C49G", "self-cleavage": 0.346}, {"variant": "C22A G52C", "self-cleavage": 0.305}, {"variant": "C22A A51G", "self-cleavage": 0.457}, {"variant": "C21U G81A", "self-cleavage": 0.0978}, {"variant": "C21U G81U", "self-cleavage": 0.0875}, {"variant": "C21U G81C", "self-cleavage": 0.106}, {"variant": "C22G C26G", "self-cleavage": 0}, {"variant": "C22G C26U", "self-cleavage": 0.208}, {"variant": "U23A U79G", "self-cleavage": 0.665}, {"variant": "U23G C44G", "self-cleavage": 0.277}]}]}
